No end group written: not given here. *: point of attachment. Myristoyl = CCCCCCCCCCCCCC(=O)*
Molecular target: IRK (IR β-chain) immunoprecipitated from HEK cell lysates (UniProt P06213 763-1382, limits assumed)
Test: cell-based or functional assay

IRK (IR β-chain) immunoprecipitated from HEK cell lysates, sequence (P06213 763-1382 limits assumed): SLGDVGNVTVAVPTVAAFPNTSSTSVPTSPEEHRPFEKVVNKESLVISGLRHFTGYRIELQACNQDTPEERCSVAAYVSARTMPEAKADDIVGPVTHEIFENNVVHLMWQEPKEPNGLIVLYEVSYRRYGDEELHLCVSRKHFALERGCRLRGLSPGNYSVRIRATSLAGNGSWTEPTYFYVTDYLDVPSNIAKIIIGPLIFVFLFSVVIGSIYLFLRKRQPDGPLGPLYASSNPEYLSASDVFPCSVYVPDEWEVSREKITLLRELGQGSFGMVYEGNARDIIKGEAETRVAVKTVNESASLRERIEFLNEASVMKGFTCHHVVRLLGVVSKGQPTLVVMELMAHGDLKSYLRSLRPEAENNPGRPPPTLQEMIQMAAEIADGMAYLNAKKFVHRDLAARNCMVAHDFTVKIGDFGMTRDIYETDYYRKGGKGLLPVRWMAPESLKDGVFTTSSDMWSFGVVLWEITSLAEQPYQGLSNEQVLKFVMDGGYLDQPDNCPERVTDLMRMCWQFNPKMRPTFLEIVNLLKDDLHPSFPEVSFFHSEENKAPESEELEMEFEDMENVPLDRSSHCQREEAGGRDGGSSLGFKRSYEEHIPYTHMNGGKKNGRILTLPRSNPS

Question: With Myristoyl-KYCCSRK (cysteine pairing not given here) [P2, myr-KYCCSRK (hBVR-based peptide)] as the binder, how does the “kinase activity of IRK immunoprecipitated from HEK cells treated with 40 µM myristoylated peptide for 15 minutes, IRS peptide substrate” value read?
Answer: ~3 fold

Reference: patent US20170333564A1 (UNIVERSITY OF ROCHESTER, published 2017)
